The values that follow come from paper PMC6549136.

For this test, the target named is Rpc31, endogenous in hmt1Δ yeast cells (hypomethylated) (S. cerevisiae (endogenous in yeast cells)) (UniProt P17890). Briefly: co-IP; α-Rpc31 antibody cross-linked to magnetic beads; yeast lysates at 10 mg/ml, 2 h at 4°C; three washes with PBS, 0.5% Triton X-100, 2.5 mM MgCl2; immunoblot; cells before and after treatment with CPZ for 1 h. For orientation: A western blot detects proteins with antibodies after separation by electrophoresis.
Chain of UniProt P17890 (P17890 whole entry, stated change not applied): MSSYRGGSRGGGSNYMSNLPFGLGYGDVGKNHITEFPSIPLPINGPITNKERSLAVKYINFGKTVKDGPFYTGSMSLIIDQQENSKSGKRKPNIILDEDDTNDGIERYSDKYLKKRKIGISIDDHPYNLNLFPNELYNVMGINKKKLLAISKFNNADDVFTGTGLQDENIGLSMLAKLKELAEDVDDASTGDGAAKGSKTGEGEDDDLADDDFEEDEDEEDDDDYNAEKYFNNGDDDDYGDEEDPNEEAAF

“Myc-tagged Maf1-7SA (from UniProt P41910 1-395) (natural protein)” yielded an association relative to that in WT cells, after CPZ (% lower than in WT cells) of 40.
